Reference: patent US20020076795A1, “Novel TRF1 binding protein, methods of use thereof” (published 2002)

T1: human full length TRF1 fused to LexA (LexA-TRF1) (human, UniProt P0A7C2 1-202; P54274 2-439)
T1 construct: The construct comes from Bianchi et al. 1997; also called LexA-FL
T1 sequence (looked up): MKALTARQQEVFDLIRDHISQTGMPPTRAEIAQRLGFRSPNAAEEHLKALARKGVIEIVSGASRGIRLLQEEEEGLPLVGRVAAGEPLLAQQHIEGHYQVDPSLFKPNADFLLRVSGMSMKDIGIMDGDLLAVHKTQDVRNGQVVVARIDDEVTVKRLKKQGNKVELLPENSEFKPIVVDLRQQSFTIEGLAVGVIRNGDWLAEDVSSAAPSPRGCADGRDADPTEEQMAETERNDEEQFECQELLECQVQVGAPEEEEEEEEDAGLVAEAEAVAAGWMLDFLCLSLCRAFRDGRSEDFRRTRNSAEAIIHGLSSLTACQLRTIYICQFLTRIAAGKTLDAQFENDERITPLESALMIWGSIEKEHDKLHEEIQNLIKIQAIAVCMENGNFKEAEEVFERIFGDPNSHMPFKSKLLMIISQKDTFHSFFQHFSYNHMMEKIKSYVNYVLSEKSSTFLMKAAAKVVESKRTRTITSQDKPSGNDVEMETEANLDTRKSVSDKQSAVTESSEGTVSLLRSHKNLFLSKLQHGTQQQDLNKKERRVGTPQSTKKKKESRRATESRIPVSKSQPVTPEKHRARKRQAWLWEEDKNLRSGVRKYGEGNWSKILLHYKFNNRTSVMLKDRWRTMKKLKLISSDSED


Legend:
TRF1 (hTRF1) = TRF1 (hTRF1) (Homo sapiens, UniProt P54274 P54274:2-439); assay: EMSA; 13-120 ng TRF1 per 20 ul, 1 ng probe, 20 mM Hepes-KOH pH 7.9, 100 mM KCl, 100 ng sheared E. coli DNA, room temperature; slight nonspecific stimulation by tankyrase without NAD+; settings: tags: baculovirus-derived (Bianchi et al. 1997); chain copies: 2 (homodimer, stated; several dimers per probe at high concentration); label: end-labeled
Description: Biol. 12:4834 (1992)] containing 12 tandem TTAGGG repeats. Baculovirus-derived TRF1 (13 to 120 ng) [Bianchi et al. EMBO J. 16:1785 (1997)] was incubated for 30 minutes at room temperature in a 20 μl reaction containing 20 mM Hepes-KOH (pH 7.9), 100 mM KCL, 0.5 mM DTT, 5% glycerol, 0.1% NP40, 100 ng sheared E. coli DNA, 100 ng β-casein, and 1 ng of labeled probe. In some cases, reactions were supplemented with NAD⁺ (0.2 mM) and baculovirus-derived human tankyrase (2.5 to 200 ng). Samples were fractionated on a 0.7% agarose gel run in 0.1× TBE (8.9 mM Tris-base, 8.9 mM Boric acid, and 0.2 mM EDTA) at 130 volts for 1 hour at room temperature. Gels were dried onto Whatman DE81 paper and autoradiographed.

[1] = target: T1, human full length TRF1 fused to LexA …; assay: yeast two-hybrid, β-galactosidase; GAD without tankyrase sequences
Description: TR1L-4 and TR1L-12 were isolated from a human liver two-hybrid cDNA library (Clontech) created in pGad10. The library was screened with human full length TRF1 cDNA fused to LexA (LexA-TRF1) [Bianchi et al., EMBO J., 16:1785-1794 (1997)] in the yeast strain L40 as described [Hollenberg et al., Mol. Cell Biol., 15:3813-3822 (1995)]. Two-hybrid analysis was performed as described by Bianchi et al. [EMBO J., 16:1785-1794 (1997)]. β-galactosidase assays for the two-hybrid analysis was performed as described by Bianchi et al. [EMBO J., 16:1785-1794 (1997)].
Two-hybrid analysis was used to determine the interacting domains between tankyrase and TRF1. […] To determine the tankyrase-interacting domain in TRF1, two-hybrid analysis was performed with the 10-ANK repeat domain of TR1L-12 fused to the GAL4 activation domain (GAD-tankyrase) and full-length and deletion constructs of TRF1 fused to LexA. […] As observed previously, the amino-terminal acidic domain of TFR1 (LexAd68-C) activated transcription even in the absence of tankyrase sequences in the GAD fusion partner. […] Deletion of the acidic domain of TRF1 (ΔN66-LexA) abolished the interaction with GAD-tankyrase.

Binder	binding result (TRF1 (hTRF1))	binding result [1]
[TTAGGG]12 duplex, 142 bp HindIII-Asp718 fragment of pTH12 (dsDNA) DNA 1: TTAGGGTTAGGGTTAGGGTTAGGGTTAGGGTTAGGGTTAGGGTTAGGGTTAGGGTTAGGGTTAGGGTTAGGG DNA 2: CCCTAACCCTAACCCTAACCCTAACCCTAACCCTAACCCTAACCCTAACCCTAACCCTAACCCTAACCCTAA	binds	
GAL4 activation domain (GAD) (alone) (other, UniProt P04386 768-881, looked up, Control) ANFNQSGNIADSSLSFTFTNSSNGPNLITTQTNSQALSQPIASSNVHDNFMNNEITASKIDDGNNSKPLSPGWTDQTAYNAFGITTGMFNTTTMDDVYNYLFDDEDTPPNPKKE		no binding
